# Laboratory results: the supplement of paper PMC11316812
# ± gives the standard deviation of the averaged measurements.
# What was measured:
# hTERT-HMEC = assay: percentage of EdU-negative (G0-arrested) nuclei per well, 72 h; higher = more G0 arrest; settings: reference: sequence is the full UniProt precursor, the tested protein was the secreted form or ectodomain
# MCF7 = assay: as above; settings: reference: sequence is the full UniProt precursor, the tested protein was the secreted form or ectodomain
# [1] = protein concentration 0.0225 µM
# [2] = protein concentration 0.03125 µM
# [3] = protein concentration 0.3125 µM
# [4] = protein concentration 0.0165525 µM
# [5] = protein concentration 0.165525 µM
# [6] = protein concentration 0.0215 µM
# [7] = protein concentration 0.0357143 µM
# [8] = protein concentration 0.357143 µM
# [9] = protein concentration 0.01325 µM
# [10] = protein concentration 0.1325 µM
# 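Further: secreted proteins added to cultured cells, EdU pulse at the end, nuclei found by Hoechst imaging, EdU status from nuclear versus surrounding ring intensity ratio, PBS as neutral control.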
sequence,measurement,setting,value
MTLLLLPLLLASLLASCSCNKANKHKPWIEAEYQGIVMENDNTVLLNPPLFALDKDAPLRYAGEICGFRLHGSGVPFEAVILDKATGEGLIRAKEPVDCEAQKEHTFTIQAYDCGEGPDGANTKKSHKATVHVRVNDVNEFAPVFVERLYRAAVTEGKLYDRILRVEAIDGDCSPQYSQICYYEILTPNTPFLIDNDGNIENTEKLQYSGERLYKFTVTAYDCGKKRAADDAEVEIQVKPTCKPSWQGWNKRIEYAPGAGSLALFPGIRLETCDEPLWNIQATIELQTSHVAKGCDRDNYSERALRKLCGAATGEVDLLPMPGPNANWTAGLSVHYSQDSSLIYWFNGTQAVQVPLGGPSGLGSGPQDSLSDHFTLSFWMKHGVTPNKGKKEEETIVCNTVQNEDGFSHYSLTVHGCRIAFLYWPLLESARPVKFLWKLEQVCDDEWHHYALNLEFPTVTLYTDGISFDPALIHDNGLIHPPRREPALMIGACWTEEKNKEKEKGDNSTDTTQGDPLSIHHYFHGYLAGFSVRSGRLESREVIECLYACREGLDYRDFESLGKGMKVHVNPSQSLLTLEGDDVETFNHALQHVAYMNTLRFATPGVRPLRLTTAVKCFSEESCVSIPEVEGYVVVLQPDAPQILLSGTAHFARPAVDFEGTNGVPLFPDLQITCSISHQVEAKKDESWQGTVTDTRMSDEIVHNLDGCEISLVGDDLDPERESLLLDTTSLQQRGLELTNTSAYLTIAGVESITVYEEILRQARYRLRHGAALYTRKFRLSCSEMNGRYSSNEFIVEVNVLHSMNRVAHPSHVLSSQQFLHRGHQPPPEMAGHSLASSHRNSMIPSAATLIIVVCVGFLVLMVVLGLVRIHSLHRRVSGAGGPPGASSDPKDPDLFWDDSALTIIVNPMESYQNRQSCVTGAVGGQQEDEDSSDSEVADSPSSDERRIIETPPHRY [Q9BQT9],percentage of EdU-negative,hTERT-HMEC; [1],4.44 ± 0.21%
same,percentage of EdU-negative,hTERT-HMEC; protein concentration 0.225 µM,5.534 ± 0.019%
same,percentage of EdU-negative,MCF7; [1],25.2 ± 1.4%
same,percentage of EdU-negative,MCF7; protein concentration 0.225 µM,26.1 ± 0.34%
MTLLPGLLFLTWLHTCLAHHDPSLRGHPHSHGTPHCYSAEELPLGQAPPHLLARGAKWGQALPVALVSSLEAASHRGRHERPSATTQCPVLRPEEVLEADTHQRSISPWRYRVDTDEDRYPQKLAFAECLCRGCIDARTGRETAALNSVRLLQSLLVLRRRPCSRDGSGLPTPGAFAFHTEFIHVPVGCTCVLPRSV [Q9P0M4],percentage of EdU-negative,hTERT-HMEC; [2],5.54 ± 0.085%
same,percentage of EdU-negative,hTERT-HMEC; [3],5.3 ± 0.055%
same,percentage of EdU-negative,MCF7; [2],26.7 ± 2.1%
same,percentage of EdU-negative,MCF7; [3],26.1 ± 1.7%
MTLTLSVLICLGLSVGPRTCVQAGTLPKPTLWAEPASVIARGKPVTLWCQGPLETEEYRLDKEGLPWARKRQNPLEPGAKAKFHIPSTVYDSAGRYRCYYETPAGWSEPSDPLELVATGFYAEPTLLALPSPVVASGGNVTLQCDTLDGLLTFVLVEEEQKLPRTLYSQKLPKGPSQALFPVGPVTPSCRWRFRCYYYYRKNPQVWSNPSDLLEILVPGVSRKPSLLIPQGSVVARGGSLTLQCRSDVGYDIFVLYKEGEHDLVQGSGQQPQAGLSQANFTLGPVSRSHGGQYRCYGAHNLSPRWSAPSDPLDILIAGLIPDIPALSVQPGPKVASGENVTLLCQSWHQIDTFFLTKEGAAHPPLCLKSKYQSYRHQAEFSMSPVTSAQGGTYRCYSAIRSYPYLLSSPSYPQELVVSGPSGDPSLSPTGSTPTPGPEDQPLTPTGLDPQSGLGRHLGVVTGVSVAFVLLLFLLLFLLLRHRHQSKHRTSAHFYRPAGAAGPEPKDQGLQKRASPVADIQEEILNAAVKDTQPKDGVEMDAPAAASEAPQDVTYAQLHSLTLRREATEPPPSQEREPPAEPSIYAPLAIH,percentage of EdU-negative,hTERT-HMEC; [1],5.56 ± 0.57%
same,percentage of EdU-negative,hTERT-HMEC; protein concentration 0.225 µM,4.64 ± 0.082%
same,percentage of EdU-negative,MCF7; [1],26.64 ± 0.18%
same,percentage of EdU-negative,MCF7; protein concentration 0.225 µM,24.8 ± 1.6%
MTMETQMSQNVCPRNLWLLQPLTVLLLLASADSQAAAPPKAVLKLEPPWINVLQEDSVTLTCQGARSPESDSIQWFHNGNLIPTHTQPSYRFKANNNDSGEYTCQTGQTSLSDPVHLTVLSEWLVLQTPHLEFQEGETIMLRCHSWKDKPLVKVTFFQNGKSQKFSHLDPTFSIPQANHSHSGDYHCTGNIGYTLFSSKPVTITVQVPSMGSSSPMGIIVAVVIATAVAAIVAAVVALIYCRKKRISANSTDPVKAAQFEPPGRQMIAIRKRQLEETNNDYETADGGYMTLNPRAPTDDDKNIYLTLPPNDHVNSNN,percentage of EdU-negative,hTERT-HMEC; [4],4.6 ± 0.053%
same,percentage of EdU-negative,hTERT-HMEC; [5],5.2 ± 0.11%
same,percentage of EdU-negative,MCF7; [4],26.5 ± 1.3%
same,percentage of EdU-negative,MCF7; [5],25.5 ± 0.26%
MTPALTALLCLGLSLGPRTRVQAGPFPKPTLWAEPGSVISWGSPVTIWCQGSLEAQEYQLDKEGSPEPLDRNNPLEPKNKARFSIPSMTQHHAGRYRCHYYSSAGWSEPSDPLELVMTGFYNKPTLSALPSPVVASGGNMTLRCGSQKGYHHFVLMKEGEHQLPRTLDSQQLHSGGFQALFPVGPVTPSHRWRFTCYYYYTNTPRVWSHPSDPLEILPSGVSRKPSLLTLQGPVLAPGQSLTLQCGSDVGYDRFVLYKEGERDFLQRPGQQPQAGLSQANFTLGPVSPSHGGQYRCYGAHNLSSEWSAPSDPLNILMAGQIYDTVSLSAQPGPTVASGENVTLLCQSRGYFDTFLLTKEGAAHPPLRLRSMYGAHKYQAEFPMSPVTSAHAGTYRCYGSYSSNPHLLSFPSEPLELMVSGHSGGSSLPPTGPPSTPASHAKDYTVENLIRMGMAGLVLVFLGILLFEAQHSQRNPQDAAGR [Q6PI73],percentage of EdU-negative,hTERT-HMEC; [1],5.69 ± 0.33%
same,percentage of EdU-negative,hTERT-HMEC; protein concentration 0.225 µM,5.12 ± 0.84%
same,percentage of EdU-negative,MCF7; [1],22.6 ± 0.32%
same,percentage of EdU-negative,MCF7; protein concentration 0.225 µM,24.9 ± 4.2%
MTPHRLLPPLLLLLALLLAASPGGALARCPGCGQGVQAGCPGGCVEEEDGGSPAEGCAEAEGCLRREGQECGVYTPNCAPGLQCHPPKDDEAPLRALLLGRGRCLPARAPAVAEENPKESKPQAGTARPQDVNRRDQQRNPGTSTTPSQPNSAGVQDTEMGPCRRHLDSVLQQLQTEVYRGAQTLYVPNCDHRGFYRKRQCRSSQGQRRGPCWCVDRMGKSLPGSPDGNGSSSCPTGSSG,percentage of EdU-negative,hTERT-HMEC; [2],4.84 ± 0.44%
same,percentage of EdU-negative,hTERT-HMEC; [3],5.17 ± 1%
same,percentage of EdU-negative,MCF7; [2],25 ± 1.6%
same,percentage of EdU-negative,MCF7; [3],25.79 ± 0.037%
MTPILTVLICLGLSLGPRTHVQAGHLPKPTLWAEPGSVIIQGSPVTLRCQGSLQAEEYHLYRENKSASWVRRIQEPGKNGQFPIPSITWEHAGRYHCQYYSHNHSSEYSDPLELVVTGAYSKPTLSALPSPVVTSGGNVTLQCVSQVAFDGFILCKEGEDEHPQRLNSHSHARGWSWAIFSVGPVSPSRRWSYRCYAYDSNSPYVWSLPSDLLELLVPGVSKKPSLSVQPGPMVAPGESLTLQCVSDVGYDRFVLYKEGERDFLQRPGWQPQAGLSQANFTLGPVSPSHGGQYRCYSAHNLSSEWSAPSDPLDILITGQFYDRPSLSVQPVPTVAPGKNVTLLCQSRGQFHTFLLTKEGAGHPPLHLRSEHQAQQNQAEFRMGPVTSAHVGTYRCYSSLSSNPYLLSLPSDPLELVVSEAAETLSPSQNKTDSTTTSLGQHPQDYTVENLIRMGVAGLVLVVLGILLFEAQHSQRSLQDAAGR [Q8N149],percentage of EdU-negative,hTERT-HMEC; [1],5.36 ± 0.5%
same,percentage of EdU-negative,hTERT-HMEC; protein concentration 0.225 µM,4.88 ± 0.47%
same,percentage of EdU-negative,MCF7; [1],23.9 ± 0.99%
same,percentage of EdU-negative,MCF7; protein concentration 0.225 µM,26.3 ± 3.1%
MTPILTVLICLGLSLGPRTHVQAGHLPKPTLWAEPGSVITQGSPVTLRCQGGQETQEYRLYREKKTALWITRIPQELVKKGQFPIPSITWEHAGRYRCYYGSDTAGRSESSDPLELVVTGAYIKPTLSAQPSPVVNSGGNVILQCDSQVAFDGFSLCKEGEDEHPQCLNSQPHARGSSRAIFSVGPVSPSRRWWYRCYAYDSNSPYEWSLPSDLLELLVLGVSKKPSLSVQPGPIVAPEETLTLQCGSDAGYNRFVLYKDGERDFLQLAGAQPQAGLSQANFTLGPVSRSYGGQYRCYGAHNLSSEWSAPSDPLDILIAGQFYDRVSLSVQPGPTVASGENVTLLCQSQGWMQTFLLTKEGAADDPWRLRSTYQSQKYQAEFPMGPVTSAHAGTYRCYGSQSSKPYLLTHPSDPLELVVSGPSGGPSSPTTGPTSTSGPEDQPLTPTGSDPQSGLGRHLGVVIGILVAVILLLLLLLLLFLILRHRRQGKHWTSTQRKADFQHPAGAVGPEPTDRGLQWRSSPAADAQEENLYAAVKHTQPEDGVEMDTRSPHDEDPQAVTYAEVKHSRPRREMASPPSPLSGEFLDTKDRQAEEDRQMDTEAAASEAPQDVTYAQLHSLTLRREATEPPPSQEGPSPAVPSIYATLAIH [A0A0B4J1W1],percentage of EdU-negative,hTERT-HMEC; [6],4.85 ± 0.58%
same,percentage of EdU-negative,hTERT-HMEC; protein concentration 0.215 µM,5.72 ± 0.22%
same,percentage of EdU-negative,MCF7; [6],23.2 ± 2.5%
same,percentage of EdU-negative,MCF7; protein concentration 0.215 µM,25.3 ± 0.95%
MTPPERLFLPRVCGTTLHLLLLGLLLVLLPGAQGLPGVGLTPSAAQTARQHPKMHLAHSTLKPAAHLIGDPSKQNSLLWRANTDRAFLQDGFSLSNNSLLVPTSGIYFVYSQVVFSGKAYSPKATSSPLYLAHEVQLFSSQYPFHVPLLSSQKMVYPGLQEPWLHSMYHGAAFQLTQGDQLSTHTDGIPHLVLSPSTVFFGAFAL,percentage of EdU-negative,hTERT-HMEC; [7],6.4 ± 0.43%
same,percentage of EdU-negative,hTERT-HMEC; [8],6.94 ± 0.51%
same,percentage of EdU-negative,MCF7; [7],35.3 ± 2.4%
same,percentage of EdU-negative,MCF7; [8],42.8 ± 0.91%
MTPPKLRASLSPSLLLLLSGCLLAAARREKGAASNVAEPVPGPTGGSSGRFLSPEQHACSWQLLLPAPEAAAGSELALRCQSPDGARHQCAYRGHPERCAAYAARRAHFWKQVLGGLRKKRRPCHDPAPLQARLCAGKKGHGAELRLVPRASPPARPTVAGFAGESKPRARNRGRTRERASGPAAGTPPPQSAPPKENPSERKTNEGKRKAALVPNEERPMGTGPDPDGLDGNAELTETYCAEKWHSLCNFFVNFWNG [Q8TAT2],percentage of EdU-negative,hTERT-HMEC; [9],4.87 ± 0.1%
same,percentage of EdU-negative,hTERT-HMEC; [10],6.22 ± 0.9%
same,percentage of EdU-negative,MCF7; [9],25.1 ± 0.15%
same,percentage of EdU-negative,MCF7; [10],27.7 ± 1.3%
MTPPPPGRAAPSAPRARVPGPPARLGLPLRLRLLLLLWAAAASAQGHLRSGPRIFAVWKGHVGQDRVDFGQTEPHTVLFHEPGSSSVWVGGRGKVYLFDFPEGKNASVRTVNIGSTKGSCLDKRDCENYITLLERRSEGLLACGTNARHPSCWNLVNGTVVPLGEMRGYAPFSPDENSLVLFEGDEVYSTIRKQEYNGKIPRFRRIRGESELYTSDTVMQNPQFIKATIVHQDQAYDDKIYYFFREDNPDKNPEAPLNVSRVAQLCRGDQGGESSLSVSKWNTFLKAMLVCSDAATNKNFNRLQDVFLLPDPSGQWRDTRVYGVFSNPWNYSAVCVYSLGDIDKVFRTSSLKGYHSSLPNPRPGKCLPDQQPIPTETFQVADRHPEVAQRVEPMGPLKTPLFHSKYHYQKVAVHRMQASHGETFHVLYLTTDRGTIHKVVEPGEQEHSFAFNIMEIQPFRRAAAIQTMSLDAERRKLYVSSQWEVSQVPLDLCEVYGGGCHGCLMSRDPYCGWDQGRCISIYSSERSVLQSINPAEPHKECPNPKPDKAPLQKVSLAPNSRYYLSCPMESRHATYSWRHKENVEQSCEPGHQSPNCILFIENLTAQQYGHYFCEAQEGSYFREAQHWQLLPEDGIMAEHLLGHACALAASLWLGVLPTLTLGLLVH,percentage of EdU-negative,hTERT-HMEC; [1],4.66 ± 0.25%
same,percentage of EdU-negative,hTERT-HMEC; protein concentration 0.225 µM,5.49 ± 0.49%
same,percentage of EdU-negative,MCF7; [1],24.7 ± 2.4%
same,percentage of EdU-negative,MCF7; protein concentration 0.225 µM,25.6 ± 1.6%
